In patent publication US20260098059A1 (ENDOMET BIOSCIENCES, published 2026):
Values joined by “and” are separate entries in the source; they are usually repeats but may differ in a detail not shown here. Equal values may be shown once.

T1: β-catenin (UniProt P35222 134-665, limits assumed, biotinylated in the SPR and plate assays)
T1 construct: also called beta catenin; biotinylated β-catenin
T1 sequence (looked up): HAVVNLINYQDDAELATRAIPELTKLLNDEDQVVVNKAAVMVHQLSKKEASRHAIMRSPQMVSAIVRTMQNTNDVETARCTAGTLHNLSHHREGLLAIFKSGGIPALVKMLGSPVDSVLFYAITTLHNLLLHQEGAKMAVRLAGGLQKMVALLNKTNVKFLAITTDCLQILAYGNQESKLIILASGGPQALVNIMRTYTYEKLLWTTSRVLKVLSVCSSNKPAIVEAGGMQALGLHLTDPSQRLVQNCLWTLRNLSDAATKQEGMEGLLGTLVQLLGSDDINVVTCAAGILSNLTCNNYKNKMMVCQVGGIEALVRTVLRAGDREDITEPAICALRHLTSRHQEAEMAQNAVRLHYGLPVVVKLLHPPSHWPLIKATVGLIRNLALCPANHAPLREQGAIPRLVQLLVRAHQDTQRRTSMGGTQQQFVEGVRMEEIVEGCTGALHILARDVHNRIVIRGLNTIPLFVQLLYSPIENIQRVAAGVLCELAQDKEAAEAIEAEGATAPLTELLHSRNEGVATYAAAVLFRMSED


Assays:
β-catenin [1] = molecular target: T1, β-catenin; experiment: competitive FP
In short: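 Competitive fluorescence polarization with inhibitor peptide serially diluted from 10 nM to 30 uM; polarization read at 470 nm excitation, 520 nm emission. Experiments performed three times.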

β-catenin [2] = molecular target: T1, β-catenin; experiment: SPR (Biacore); SPR (Biacore), direct binding
Protocol: (§1) Biotinylated protein (beta catenin) was immobilized on a high-affinity streptavidin (SA) sensor chip (GE). Peptide at increasing concentrations was flowed over in HBS EP+ buffer at room temperature according to manufacturer's instructions. The maximum binding capacity of the surface (response at saturation) was calculated using the Biacore® system (GE) instructions and binding was measured at each concentration as a data point. The binding levels were determined over a range of analyte concentrations of at least from 20% to 80% saturation of the surface. On rates, off rates, and KD were calculated using Biacore® Insight Evaluation Software software (GE).

β-catenin [3] = molecular target: T1, β-catenin; experiment: cell-based or functional assay
β-catenin [4] = molecular target: T1, β-catenin; experiment: SPR (Biacore)
Protocol: as §1

Row | Binder | Kd (β-catenin [1]) | Kd (β-catenin [2]) [nM] | Wnt Reporter EC50 (β-catenin [3]) | Kd (β-catenin [4]) [nM]
1 | KMIRMWFLISFWG (cyclo-H2N-K(Aoc*)MIRM-NmeW-FLISFWG*) [SEQ ID NO: 21] | > 30000 nM | 337 | > 30000 nM | –
2 | H-MWESILDEHMQRVWRG-OH [SEQ ID NO: 23] | ≤ 400 nM | – | > 30000 nM | 1590
3 | KMSRMWYLISFWG (HELM PEPTIDE1{K.M.S.R.M.W.Y.L.I.S.F.W.G}$PEPTIDE1,PEPTIDE1,1:R3-13:R2$$$V2.0; SMILES CC[C@H](C)[C@@H]1NC(=O)[C@H](CC(C)C)NC(=O)[C@H](Cc2ccc(O)cc2)NC(=O)[C@H](Cc2c[nH]c3ccccc23)NC(=O)[C@H](CCSC)NC(=O)[C@H](CCCNC(=N)N)NC(=O)[C@H](CO)NC(=O)[C@H](CCSC)NC(=O)[C@@H](N)CCCCNC(=O)CNC(=O)[C@H](Cc2c[nH]c3ccccc23)NC(=O)[C@H](Cc2ccccc2)NC(=O)[C@H](CO)NC1=O) [SEQ ID NO: 27] | – | – | > 30000 nM | 515
4 | KMSRMWFLISFWRG (HELM PEPTIDE1{K.M.S.R.M.W.F.L.I.S.F.W.R.G}$PEPTIDE1,PEPTIDE1,1:R3-14:R2$$$V2.0; SMILES CC[C@H](C)[C@@H]1NC(=O)[C@H](CC(C)C)NC(=O)[C@H](Cc2ccccc2)NC(=O)[C@H](Cc2c[nH]c3ccccc23)NC(=O)[C@H](CCSC)NC(=O)[C@H](CCCNC(=N)N)NC(=O)[C@H](CO)NC(=O)[C@H](CCSC)NC(=O)[C@@H](N)CCCCNC(=O)CNC(=O)[C@H](CCCNC(=N)N)NC(=O)[C@H](Cc2c[nH]c3ccccc23)NC(=O)[C@H](Cc2ccccc2)NC(=O)[C@H](CO)NC1=O) [SEQ ID NO: 24] | ≤ 400 nM | – | > 30000 nM | 270
5 | KWAQSILNQHVQRVWG (HELM PEPTIDE1{K.W.[meA].Q.S.I.L.N.Q.H.V.Q.R.V.W.G}$PEPTIDE1,PEPTIDE1,1:R3-16:R2$$$V2.0; SMILES CC[C@H](C)[C@@H]1NC(=O)[C@H](CO)NC(=O)[C@H](CCC(N)=O)NC(=O)[C@H](C)N(C)C(=O)[C@H](Cc2c[nH]c3ccccc23)NC(=O)[C@@H](N)CCCCNC(=O)CNC(=O)[C@H](Cc2c[nH]c3ccccc23)NC(=O)[C@H](C(C)C)NC(=O)[C@H](CCCNC(=N)N)NC(=O)[C@H](CCC(N)=O)NC(=O)[C@H](C(C)C)NC(=O)[C@H](Cc2c[nH]cn2)NC(=O)[C@H](CCC(N)=O)NC(=O)[C@H](CC(N)=O)NC(=O)[C@H](CC(C)C)NC1=O) [SEQ ID NO: 20] | > 30000 nM | 48 | > 30000 nM | –
6 | H-MWFLISFWG-OH [SEQ ID NO: 17] | > 400 nM and ≤ 1000 nM | – | ≤ 7500 nM | 314
7 | H-MSRMWFLISFWMG-OH [SEQ ID NO: 14] | > 30000 nM | 250 | ≤ 7500 nM | –
8 | KMSRMWFLISLWG (HELM PEPTIDE1{K.M.S.R.M.W.F.L.I.S.L.W.G}$PEPTIDE1,PEPTIDE1,1:R3-13:R2$$$V2.0; SMILES CC[C@H](C)[C@@H]1NC(=O)[C@H](CC(C)C)NC(=O)[C@H](Cc2ccccc2)NC(=O)[C@H](Cc2c[nH]c3ccccc23)NC(=O)[C@H](CCSC)NC(=O)[C@H](CCCNC(=N)N)NC(=O)[C@H](CO)NC(=O)[C@H](CCSC)NC(=O)[C@@H](N)CCCCNC(=O)CNC(=O)[C@H](Cc2c[nH]c3ccccc23)NC(=O)[C@H](CC(C)C)NC(=O)[C@H](CO)NC1=O) [SEQ ID NO: 28] | – | – | > 22500 nM and ≤ 30000 nM | 803
9 | H-MIRMWFLISFWG-OH [SEQ ID NO: 15] | – | – | ≤ 7500 nM | 130

More lines, now with the values ahead:

Row | Kd (β-catenin [1]) | Kd (β-catenin [2]) [nM] | Wnt Reporter EC50 (β-catenin [3]) | Kd (β-catenin [4]) [nM] | Binder
10 | > 30000 nM | 546 | – | – | NPDGLSQEQLEHRERSLQTLRDIQRMLFPDEKEFTAAK (HELM PEPTIDE1{[ac].N.P.D.G.L.S.Q.E.Q.L.E.H.R.E.R.S.L.Q.T.L.R.D.I.Q.R.M.L.F.P.D.E.K.E.F.T.[bAla].[bAla].K.[am]}$$$$V2.0; SMILES CC[C@H](C)[C@H](NC(=O)[C@H](CC(=O)O)NC(=O)[C@H](CCCNC(=N)N)NC(=O)[C@H](CC(C)C)NC(=O)[C@@H](NC(=O)[C@H](CCC(N)=O)NC(=O)[C@H](CC(C)C)NC(=O)[C@H](CO)NC(=O)[C@H](CCCNC(=N)N)NC(=O)[C@H](CCC(=O)O)NC(=O)[C@H](CCCNC(=N)N)NC(=O)[C@H](Cc1c[nH]cn1)NC(=O)[C@H](CCC(=O)O)NC(=O)[C@H](CC(C)C)NC(=O)[C@H](CCC(N)=O)NC(=O)[C@H](CCC(=O)O)NC(=O)[C@H](CCC(N)=O)NC(=O)[C@H](CO)NC(=O)[C@H](CC(C)C)NC(=O)CNC(=O)[C@H](CC(=O)O)NC(=O)[C@@H]1CCCN1C(=O)[C@H](CC(N)=O)NC(C)=O)[C@@H](C)O)C(=O)N[C@@H](CCC(N)=O)C(=O)N[C@@H](CCCNC(=N)N)C(=O)N[C@@H](CCSC)C(=O)N[C@@H](CC(C)C)C(=O)N[C@@H](Cc1ccccc1)C(=O)N1CCC[C@H]1C(=O)N[C@@H](CC(=O)O)C(=O)N[C@@H](CCC(=O)O)C(=O)N[C@@H](CCCCN)C(=O)N[C@@H](CCC(=O)O)C(=O)N[C@@H](Cc1ccccc1)C(=O)N[C@H](C(=O)NCCC(=O)NCCC(=O)N[C@@H](CCCCN)C(N)=O)[C@@H](C)O, Bcl9 residues 347-381, acetylated, with beta-Ala-beta-Ala-K added, amidated) [SEQ ID NO: 270 (Ac-Bcl9(347-381)-AβAβK-CONH2)]
11 | > 400 nM and ≤ 1000 nM | – | > 30000 nM | 1030 | KMPLAISWFEHIG (HELM PEPTIDE1{K.M.P.L.[meA].I.S.W.F.E.H.I.G}$PEPTIDE1,PEPTIDE1,1:R3-13:R2$$$V2.0; SMILES CC[C@H](C)[C@@H]1NC(=O)[C@H](Cc2c[nH]cn2)NC(=O)[C@H](CCC(=O)O)NC(=O)[C@H](Cc2ccccc2)NC(=O)[C@H](Cc2c[nH]c3ccccc23)NC(=O)[C@H](CO)NC(=O)[C@H]([C@@H](C)CC)NC(=O)[C@H](C)N(C)C(=O)[C@H](CC(C)C)NC(=O)[C@@H]2CCCN2C(=O)[C@H](CCSC)NC(=O)[C@@H](N)CCCCNC(=O)CNC1=O) [SEQ ID NO: 29]
12 | ≤ 400 nM | – | – | 58.2 | H-GGGDDLGANDELISFKDEGEQEEKSSENSSAERDLADVKSSLVNEK-NH2 (Tcf4 residues 7-51 with an added C-terminal K, amidated) [SEQ ID NO: 266 (H2N-Tcf4(7-51)-K-CONH2)]
13 | – | – | > 30000 nM | 123 | KMAESILDEHVQRVWG (HELM PEPTIDE1{K.M.[meA].E.S.I.L.D.E.H.V.Q.R.V.W.G}$PEPTIDE1,PEPTIDE1,1:R3-16:R2$$$V2.0; SMILES CC[C@H](C)[C@@H]1NC(=O)[C@H](CO)NC(=O)[C@H](CCC(=O)O)NC(=O)[C@H](C)N(C)C(=O)[C@H](CCSC)NC(=O)[C@@H](N)CCCCNC(=O)CNC(=O)[C@H](Cc2c[nH]c3ccccc23)NC(=O)[C@H](C(C)C)NC(=O)[C@H](CCCNC(=N)N)NC(=O)[C@H](CCC(N)=O)NC(=O)[C@H](C(C)C)NC(=O)[C@H](Cc2c[nH]cn2)NC(=O)[C@H](CCC(=O)O)NC(=O)[C@H](CC(=O)O)NC(=O)[C@H](CC(C)C)NC1=O) [SEQ ID NO: 30]
